Experimental findings from patent publication US20200325225A1 (Hoffmann-La Roche, published 2020) are described below.

The target of this assay is T1, murine FAP (murine, UniProt P97321 27-761, limits assumed).
T1 construct: also called mouse FAP; murine FAP (Analyte 2)
Nature of the assay: SPR (Biacore T200, 25 C, HBS-EP), simultaneous binding; muFAP-4-1BB held on immobilized murine 4-1BB Fc(kih); murine FAP 500 nM as second analyte, 30 uL/min, 90 s, dissociation 120 s.

T1 sequence (P97321 27-761 limits assumed): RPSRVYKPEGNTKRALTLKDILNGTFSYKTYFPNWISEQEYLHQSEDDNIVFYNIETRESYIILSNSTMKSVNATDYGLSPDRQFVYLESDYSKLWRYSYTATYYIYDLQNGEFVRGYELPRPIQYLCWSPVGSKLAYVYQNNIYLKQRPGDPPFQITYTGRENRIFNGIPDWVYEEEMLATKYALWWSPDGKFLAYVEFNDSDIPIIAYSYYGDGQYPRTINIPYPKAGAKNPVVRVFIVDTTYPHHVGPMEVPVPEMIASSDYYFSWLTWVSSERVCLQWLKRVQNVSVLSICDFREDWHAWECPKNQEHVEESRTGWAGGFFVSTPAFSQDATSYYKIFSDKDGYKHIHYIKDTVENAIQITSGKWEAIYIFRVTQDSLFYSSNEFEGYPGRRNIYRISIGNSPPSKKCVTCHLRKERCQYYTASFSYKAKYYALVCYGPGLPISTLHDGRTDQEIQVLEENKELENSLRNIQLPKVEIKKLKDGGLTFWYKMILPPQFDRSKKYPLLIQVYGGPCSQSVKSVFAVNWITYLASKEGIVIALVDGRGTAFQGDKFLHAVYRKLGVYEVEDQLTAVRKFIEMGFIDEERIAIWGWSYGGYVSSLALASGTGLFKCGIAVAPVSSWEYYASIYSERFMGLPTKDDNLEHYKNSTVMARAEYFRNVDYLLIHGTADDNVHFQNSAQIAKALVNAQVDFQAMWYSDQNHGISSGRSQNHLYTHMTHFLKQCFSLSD
Description: All SPR experiments were performed on a Biacore T200 at 25° C. with HBS-EP as running buffer (0.01 M HEPES pH 7.4, 0.15 M NaCl, 3 mM EDTA, 0.005% Surfactant P20, Biacore, Freiburg/Germany). […] Immobilization levels up to 600 resonance units (RU) were used.
Murine FAP was injected as second analyte with a flow of 30 μL/minute through the flow cells over 90 seconds at a concentration of 500 nM. The dissociation was monitored for 120 sec. Bulk refractive index differences were corrected for by subtracting the response obtained in a reference flow cell, where no protein was immobilized.

B1: 4-1BB (MU137-1)/FAP(28H1) DAPG IgG1 2+1 (Fc-DD-VL) (bispecific antibody)
heavy 1: DVQLVESGGGLVQPGRSLKLSCAASGFIFSYFDMAWVRQAPTKGLEWVASISPSGDIPYYRDSVKGRFTVSRENAKSSLYLQMDSLRSEDTATYYCARRSYGGYSELDYWGQGVMVTVSSAKTTPPSVYPLAPGSAAQTNSMVTLGCLVKGYFPEPVTVTWNSGSLSSGVHTFPAVLQSDLYTLSSSVTVPSSTWPSQTVTCNVAHPASSTKVDKKIVPRDCGCKPCICTVPEVSSVFIFPPKPKDVLTITLTPKVTCVVVAISKDDPEVQFSWFVDDVEVHTAQTKPREEQINSTFRSVSELPIMHQDWLNGKEFKCRVNSAAFGAPIEKTISKTKGRPKAPQVYTIPPPKEQMAKDKVSLTCMITNFFPEDITVEWQWNGQPAENYDNTQPIMDTDGSYFVYSDLNVQKSNWEAGNTFTCSVLHEGLHNHHTEKSLSHSPGGGGGSGGGGSGGGGSGGGGSEIVLTQSPGTLSLSPGERATLSCRASQSVSRSYLAWYQQKPGQAPRLLIIGASTRATGIPDRFSGSGSGTDFTLTISRLEPEDFAVYYCQQGQVIPPTFGQGTKVEIK
heavy 2: DVQLVESGGGLVQPGRSLKLSCAASGFIFSYFDMAWVRQAPTKGLEWVASISPSGDIPYYRDSVKGRFTVSRENAKSSLYLQMDSLRSEDTATYYCARRSYGGYSELDYWGQGVMVTVSSAKTTPPSVYPLAPGSAAQTNSMVTLGCLVKGYFPEPVTVTWNSGSLSSGVHTFPAVLQSDLYTLSSSVTVPSSTWPSQTVTCNVAHPASSTKVDKKIVPRDCGCKPCICTVPEVSSVFIFPPKPKDVLTITLTPKVTCVVVAISKDDPEVQFSWFVDDVEVHTAQTKPREEQINSTFRSVSELPIMHQDWLNGKEFKCRVNSAAFGAPIEKTISKTKGRPKAPQVYTIPPPKKQMAKDKVSLTCMITNFFPEDITVEWQWNGQPAENYKNTQPIMKTDGSYFVYSKLNVQKSNWEAGNTFTCSVLHEGLHNHHTEKSLSHSPGGGGGSGGGGSGGGGSGGGGSEVQLLESGGGLVQPGGSLRLSCAASGFTFSSHAMSWVRQAPGKGLEWVSAIWASGEQYYADSVKGRFTISRDNSKNTLYLQMNSLRAEDTAVYYCAKGWLGNFDYWGQGTLVTVSS
light: DIQMTQSPASLSASLEEIVTITCQASQDIGNWLAWYHQKPGKSPQLLIYGTSSLADGVPSRFSGSSSGSQYSLKISRLQVEDIGIYYCLQAYGAPWTFGGGTKLELKRADAAPTVSIFPPSSEQLTSGGASVVCFLNNFYPKDINVKWKIDGSERQNGVLNSWTDQDSKDSTYSMSSTLTLTKDEYERHNSYTCEATHKTSTSPIVKSFNRNEC
notes: It is a mouse IgG1 with DAPG (D265A, P329G) and DD/KK heterodimerisation mutations, bivalent for mouse 4-1BB and monovalent for FAP; also called muFAP-4-1BB; mouse surrogate muFAP-4-1BB
As to B1, the binding result is “binds”.
